Experimental data as given in article PMC4615758 (RNA Biology, 2014).

Target: the molecule itself
Test: native gel or EMSA

B1: recombinant full size LARP6 purified from E. coli (natural protein)
chain: MAQSGGEARPGPKTAVQIRVAIQEAEDVDELEDEEEGAETRGAGDPARYLSPGWGSASEEEPSRGHSGTTASGGENEREDLEQEWKPPDEELIKKLVDQIEFYFSDENLEKDAFLLKHVRRNKLGYVSVKLLTSFKKVKHLTRDWRTTAHALKYSVVLELNEDHRKVRRTTPVPLFPNENLPSKMLLVYDLYLSPKLWALATPQKNGRVQEKVMEHLLKLFGTFGVISSVRILKPGRELPPDIRRISSRYSQVGTQECAIVEFEEVEAAIKAHEFMITESQGKENMKAVLIGMKPPKKKPAKDKNHDEEPTASIHLNKSLNKRVEELQYMGDESSANSSSDPESNPTSPMAGRRHAATNKLSPSGHQNLFLSPNASPCTSPWSSPLAQRKGVSRKSPLAEEGRLNCSTSPEIFRKCMDYSSDSSVTPSGSPWVRRRRQAEMGTQEKSPGTSPLLSRKMQTADGLPVGVLRLPRGPDNTRGFHGHERSRACV
Does B1 bind?
Result: binds
